Measurements published in PMC8836279, “The T850D Phosphomimetic Mutation in the Androgen Receptor Ligand Binding Domain Enhances Recruitment at Activation Function 2” (International Journal of Molecular Sciences, 2022).
Numbering of substitutions follows the chain as printed. Square brackets hold non-standard residues; d marks the D form. pT = C[C@@H](OP(=O)(O)O)[C@H](N)C(=O)O

Legend:
[1] = tested on: LBD WT; conditions: split TEV assay, Hep3B
[2] = biological target: T1, AR T850D (Homo sapiens, UniProt P10275, T851D); test: Whole-cell competition ligand binding assay in COS-7 cells
T1 construct: Cells expressing a flag-tagged AR full-length were used as control; expressed in transfected cells
T1 sequence (P10275 1-920 T851D): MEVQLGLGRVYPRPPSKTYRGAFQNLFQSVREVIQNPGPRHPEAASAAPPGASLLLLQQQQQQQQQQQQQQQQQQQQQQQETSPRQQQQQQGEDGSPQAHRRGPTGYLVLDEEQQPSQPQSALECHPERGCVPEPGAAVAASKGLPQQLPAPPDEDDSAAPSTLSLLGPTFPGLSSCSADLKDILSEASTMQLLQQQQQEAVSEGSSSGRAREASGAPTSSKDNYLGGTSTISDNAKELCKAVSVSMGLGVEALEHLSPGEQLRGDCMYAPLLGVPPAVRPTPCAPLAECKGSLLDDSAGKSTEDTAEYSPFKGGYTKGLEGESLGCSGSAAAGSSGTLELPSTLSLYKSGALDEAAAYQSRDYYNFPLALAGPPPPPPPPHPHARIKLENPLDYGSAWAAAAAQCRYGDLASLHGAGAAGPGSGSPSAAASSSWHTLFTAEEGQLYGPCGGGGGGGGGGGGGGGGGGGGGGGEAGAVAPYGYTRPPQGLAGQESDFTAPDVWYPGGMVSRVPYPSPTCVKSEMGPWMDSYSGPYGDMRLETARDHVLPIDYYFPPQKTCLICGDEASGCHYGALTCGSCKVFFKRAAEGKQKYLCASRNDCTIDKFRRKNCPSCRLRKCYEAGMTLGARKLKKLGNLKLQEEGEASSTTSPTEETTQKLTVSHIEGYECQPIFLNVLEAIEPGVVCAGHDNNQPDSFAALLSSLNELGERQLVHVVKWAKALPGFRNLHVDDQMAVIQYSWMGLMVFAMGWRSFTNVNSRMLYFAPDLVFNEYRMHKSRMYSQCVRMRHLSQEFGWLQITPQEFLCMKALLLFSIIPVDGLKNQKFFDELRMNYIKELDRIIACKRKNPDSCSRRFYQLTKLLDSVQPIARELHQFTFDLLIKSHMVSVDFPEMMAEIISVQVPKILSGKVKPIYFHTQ
Experimental: (§1) After addition of Ultima Gold XR (Perkin Elmer, Waltham, MA, USA), cell lysates were counted for ^3H-signal. Data were normalized for the average cpm of all data points per independent experiment. Mean and SEM of the specific binding (total binding—non-specific binding) is given (n ≥ 3). Via non-linear regression analysis using the One-site binding-equation of GraphPad Prism 9 (version 9.3.1), the KD and Bmax were calculated. Ratio-paired T-test with * = p ≤ 0.05, ** = p < 0.01.

[3] = biological target: T2, AR WT (Homo sapiens, UniProt P10275); test: as above; conditions: mean ± SE
T2 construct: Cells expressing a flag-tagged AR full-length were used as control; expressed in transfected cells
T2 sequence (P10275 1-920): T1 sequence (P10275 1-920 T851D) with D851T
Experimental: as §1

[4] = biological target: T3, AR T850A (Homo sapiens, UniProt P10275, T851A); test: as above; conditions: mean ± SE
T3 construct: Cells expressing a flag-tagged AR full-length were used as control; expressed in transfected cells
T3 sequence (P10275 1-920 T851A): T1 sequence (P10275 1-920 T851D) with D851A
Experimental: as §1

[5] = Circular dichroism spectroscopy and thermal denaturation of H10 peptides; type: physicochemical; conditions: for melting temperature higher than the WT peptide: 25 µM peptide in 20% TFE-TRIS buffer pH 7.5, at all wave lengths (208, 211, 215, 222 nm); for reduction (vs. WT peptide) of the CD minimum at 208 nm / reduction (vs. WT peptide) of the CD minimum at 222 nm: 50 µM peptide in 20% TFE-TRIS buffer pH 7.5, 4 °C
Experimental: Peptides (AR WT 845–868: Acetyl-[…]-amide) with T850D or with phosphorylated T850 (Genscript, Piscataway, NJ, USA) were compared to WT peptide through their CD spectra. […] The Mean Residue-Molar Ellipticity (MR-ME) was calculated as MR-ME = MRW × θ/(10 × d × c) with MRW (Mean Residue Weight) = peptide weight/(n − 1) and n = […]; with θ as the observed ellipticity in millidegrees; […]. The unfolded fraction (Funfolded) of the peptide was calculated from the Ellipticity data using equation: Funfolded = (θt − θfolded)/(θunfolded − θfolded) with θt as the Ellipticity at each temperature, θfolded as the Elllipticity of the peptide in folded state and θunfolded as the Ellipticity of the peptide in unfolded state. Melting temperature (Tm) of AR 845–868 peptides were calculated through nonlinear regression analysis of the Sigmoidal dose response curves (variable slope) using GraphPad Prism 9, version 9.3.1. The temperature corresponding to an unfolded fraction of 0.5 is the Tm. Mean melting temperatures with 95% CI of 2 independent experiments are given. Helix content was calculated from the molar ellipticity [θ] at 222 nm using the following equation, % helix = 100 ([θ]222/(−39,500(1 − 2.57/n))), where n is the number of total peptide bonds and [θ]222 has been corrected for background.

For `C[C@]12CCC(=O)C[C@@H]1CC[C@@H]1[C@@H]2CC[C@]2(C)[C@@H](O)CC[C@@H]12` [DHT, dihydrotestosterone], the “EC50 of WT LBD compared to EC50 of T850D LBD” value [1] was 10 fold.
For `C[C@@H]1CC2=CC(=O)CC[C@@H]2[C@H]2CC[C@@]3(C)[C@@H](CC[C@]3(C)O)[C@@H]21` [^3H-Mib], the “increase of maximal binding, AR T850D vs. AR WT” value [2] was “approximately 50%”, the Bmax ([2]; mean ± SE) was 7902 (±773) ** cpm and the Bmax [3] was 5182 (±602) cpm. For the same molecule, the Bmax [4] was 5514 (±561) cpm.
With “T850Ph peptide: H10 peptide AR 845–868 (WT: Acetyl-KRKNPTSCSRRFYQLTKLLDSVQP-amide) with phosphorylated T850 (Ac-KRKNP[pT]SCSRRFYQLTKLLDSVQP-NH2; SMILES CC(=O)N[C@@H](CCCCN)C(=O)N[C@@H](CCCNC(=N)N)C(=O)N[C@@H](CCCCN)C(=O)N[C@@H](CC(N)=O)C(=O)N1CCC[C@H]1C(=O)N[C@H](C(=O)N[C@@H](CO)C(=O)N[C@@H](CS)C(=O)N[C@@H](CO)C(=O)N[C@@H](CCCNC(=N)N)C(=O)N[C@@H](CCCNC(=N)N)C(=O)N[C@@H](Cc1ccccc1)C(=O)N[C@@H](Cc1ccc(O)cc1)C(=O)N[C@@H](CCC(N)=O)C(=O)N[C@@H](CC(C)C)C(=O)N[C@H](C(=O)N[C@@H](CCCCN)C(=O)N[C@@H](CC(C)C)C(=O)N[C@@H](CC(C)C)C(=O)N[C@@H](CC(=O)O)C(=O)N[C@@H](CO)C(=O)N[C@H](C(=O)N[C@@H](CCC(N)=O)C(=O)N1CCC[C@H]1C(N)=O)C(C)C)[C@@H](C)O)[C@@H](C)OP(=O)(O)O)” the “melting temperature higher than the WT peptide” value [5] was ~27 °C, the “reduction (vs. WT peptide) of the CD minimum at 208 nm” value [5] was 38% and the “reduction (vs. WT peptide) of the CD minimum at 222 nm” value [5] was 51%.
For “T850D peptide: H10 peptide AR 845–868 (WT: Acetyl-KRKNPTSCSRRFYQLTKLLDSVQP-amide) with T850D (Ac-KRKNPDSCSRRFYQLTKLLDSVQP-NH2)”, the “melting temperature higher than the WT peptide” value [5] was “approximately 13 °C”, the “reduction (vs. WT peptide) of the CD minimum at 208 nm” value [5] was 30% and the “reduction (vs. WT peptide) of the CD minimum at 222 nm” value [5] was 43%.
